# Measurements reported in the supplement of paper PMC7125110.
# ± gives the standard error. For part of these data: Fewer inactive variants are shown than the library holds.
# B1: glmS ribozyme (parent)
# chain: AUAAAAGCGCCAGAACUACAGAAAUGUAGUUGACGAGGAGGAGGUUUAUCGAAUUUUCGGCGGAUGCCUCCAAA
# Assays:
# Conditions in all cases: with glucosamine-6-phosphate
# glucosamine-6-phosphate [1] = variants of: B1; experiment: kcat; higher = faster cleavage; RNA array
# Outline: (§1)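 Over ~14 h at 37 °C, tiles were imaged as glucosamine-6-phosphate (40 μM to 10 mM) in HEPES/KCl/Mg(OAc)2 buffer flowed across sequenced MiSeq chips. The chips carried barcoded ribozyme variants transcribed in situ by E. coli RNA polymerase and tracked with a hybridised Cy3 probe. After normalisation to baseline and to non-cleaving reference variants, one- or two-exponential decay fits of per-tile medians gave kobs. kcat and KM followed from weighted Michaelis–Menten fits across concentrations.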
# glucosamine-6-phosphate [2] = variants of: B1; experiment: self-cleavage kobs at 40 uM GlcN6P; higher = faster cleavage; RNA array
# Outline: as §1
# glucosamine-6-phosphate [3] = variants of: B1; experiment: self-cleavage kobs at 160 uM GlcN6P; higher = faster cleavage; RNA array
# Outline: as §1
# glucosamine-6-phosphate [4] = variants of: B1; experiment: self-cleavage kobs at 2500 uM GlcN6P; higher = faster cleavage; RNA array
# Outline: as §1
# glucosamine-6-phosphate [5] = variants of: B1; experiment: self-cleavage kobs at 10000 uM GlcN6P; higher = faster cleavage; RNA array
# Outline: as §1
# glucosamine-6-phosphate [6] = variants of: B1; experiment: KM; higher = weaker cofactor use; RNA array
# Outline: as §1
# glucosamine-6-phosphate [7] = variants of: B1; experiment: self-cleavage kobs at 640 uM GlcN6P; higher = faster cleavage; RNA array
# Outline: as §1
Variant,kcat (glucosamine-6-phosphate [1]),self-cleavage kobs at 40 uM GlcN6P (glucosamine-6-phosphate [2]),self-cleavage kobs at 160 uM GlcN6P (glucosamine-6-phosphate [3]),self-cleavage kobs at 2500 uM GlcN6P (glucosamine-6-phosphate [4]),self-cleavage kobs at 10000 uM GlcN6P (glucosamine-6-phosphate [5]),KM (glucosamine-6-phosphate [6]),self-cleavage kobs at 640 uM GlcN6P (glucosamine-6-phosphate [7])
A6G A53C U54A,5.34e-05 ± 9e-06 s⁻¹,< 1e-05 s⁻¹,< 1e-05 s⁻¹,5.76e-05 ± 1.9e-05 s⁻¹,4.91e-05 ± 9.2e-06 s⁻¹,,
C10U A12G,2.19e-05 ± 1.8e-06 s⁻¹,,,,,2150 ± 870 µM,
A6U C50U,< 1e-05 s⁻¹,,,< 1e-05 s⁻¹,,,
C8A C67A,< 1e-05 s⁻¹,,< 1e-05 s⁻¹,< 1e-05 s⁻¹,,,
A6U G29A,3.18e-05 ± 3.2e-06 s⁻¹,< 1e-05 s⁻¹,,2.95e-05 ± 1.3e-05 s⁻¹,2.9e-05 ± 9.8e-06 s⁻¹,,
A6C C71A,2.27e-05 ± 4.2e-07 s⁻¹,,,,2.19e-05 ± 1.1e-05 s⁻¹,205 ± 38 µM,
A6C C71G,1.2e-05 ± 1.5e-06 s⁻¹,< 1e-05 s⁻¹,,,,,
C8U C67A,< 1e-05 s⁻¹,,,,,,< 1e-05 s⁻¹
A6G A14G,0.00132 ± 0.00026 s⁻¹,,7.41e-05 ± 1.7e-05 s⁻¹,0.000514 ± 7.9e-05 s⁻¹,0.000992 ± 0.00016 s⁻¹,3740 ± 1200 µM,0.000162 ± 4.1e-05 s⁻¹
C11A C70U,0.000155 ± 1e-05 s⁻¹,2.69e-05 ± 1e-05 s⁻¹,6.69e-05 ± 1.4e-05 s⁻¹,0.000168 ± 1.4e-05 s⁻¹,0.000145 ± 9.7e-06 s⁻¹,210 ± 71 µM,0.00011 ± 1.2e-05 s⁻¹
C11A C70A,2.97e-05 ± 1.1e-05 s⁻¹,,,,,,4.96e-05 ± 1.9e-05 s⁻¹
C11A C67U,4.14e-05 ± 2.5e-06 s⁻¹,,,3.53e-05 ± 1e-05 s⁻¹,4.17e-05 ± 6.9e-06 s⁻¹,,3.1e-05 ± 1.4e-05 s⁻¹
C10G U46A,< 1e-05 s⁻¹,,,< 1e-05 s⁻¹,,,< 1e-05 s⁻¹
G9U C11A,< 1e-05 s⁻¹,< 1e-05 s⁻¹,< 1e-05 s⁻¹,,,159 ± 62 µM,< 1e-05 s⁻¹
C11A U30G,0.000664 ± 7.4e-05 s⁻¹,,,0.000172 ± 5.6e-05 s⁻¹,0.000422 ± 9.6e-05 s⁻¹,6140 ± 920 µM,6.39e-05 ± 1.1e-05 s⁻¹
G9C G37C,1.88e-05 ± 8.6e-06 s⁻¹,,,,< 1e-05 s⁻¹,,
A6U A53U,0.000209 ± 3.5e-05 s⁻¹,,,0.000114 ± 1.6e-05 s⁻¹,0.000159 ± 2.3e-05 s⁻¹,2570 ± 1100 µM,
A6U A53G,0.000783 ± 0.00011 s⁻¹,,,0.000178 ± 2.2e-05 s⁻¹,0.000404 ± 8.1e-05 s⁻¹,8850 ± 1500 µM,5.15e-05 ± 9e-06 s⁻¹
G9A C67A,< 1e-05 s⁻¹,< 1e-05 s⁻¹,< 1e-05 s⁻¹,,,,
C10U A52C C61A U69A,< 1e-05 s⁻¹,,,,,,
A6U U65A,< 1e-05 s⁻¹,,,,,,
A6U U65G,3.43e-05 ± 1e-05 s⁻¹,< 1e-05 s⁻¹,,4.32e-05 ± 1.3e-05 s⁻¹,,,

Variant,kcat (glucosamine-6-phosphate [1]),self-cleavage kobs at 40 uM GlcN6P (glucosamine-6-phosphate [2]),self-cleavage kobs at 160 uM GlcN6P (glucosamine-6-phosphate [3]),self-cleavage kobs at 2500 uM GlcN6P (glucosamine-6-phosphate [4]),self-cleavage kobs at 10000 uM GlcN6P (glucosamine-6-phosphate [5]),KM (glucosamine-6-phosphate [6]),self-cleavage kobs at 640 uM GlcN6P (glucosamine-6-phosphate [7])
A6G C67A,0.00012 ± 9e-06 s⁻¹,< 1e-05 s⁻¹,,,9.19e-05 ± 1.6e-05 s⁻¹,3130 ± 670 µM,
A6U G59A,< 1e-05 s⁻¹,< 1e-05 s⁻¹,,,,,< 1e-05 s⁻¹
C11A G37U,1.35e-05 ± 3.5e-06 s⁻¹,,< 1e-05 s⁻¹,,,,
C11A A53U,0.000128 ± 2.5e-06 s⁻¹,,,6.02e-05 ± 1.6e-05 s⁻¹,9.96e-05 ± 1.2e-05 s⁻¹,2860 ± 180 µM,
C10A C67U C71G,2.93e-05 ± 1.4e-05 s⁻¹,,,,,,
C10G C11G,< 1e-05 s⁻¹,< 1e-05 s⁻¹,< 1e-05 s⁻¹,,,,
G7A U45C,< 1e-05 s⁻¹,,,,,,< 1e-05 s⁻¹
C10U A53G,2.78e-05 ± 1.2e-06 s⁻¹,< 1e-05 s⁻¹,,,1.69e-05 ± 7.4e-06 s⁻¹,6420 ± 600 µM,
C10G G62C,< 1e-05 s⁻¹,,,,,,
A6U U54A C67A,2.15e-05 ± 2.2e-06 s⁻¹,,< 1e-05 s⁻¹,,,,
C8G C10A,< 1e-05 s⁻¹,< 1e-05 s⁻¹,< 1e-05 s⁻¹,< 1e-05 s⁻¹,< 1e-05 s⁻¹,,< 1e-05 s⁻¹
C11A A15G,0.000255 ± 2.9e-05 s⁻¹,,3.04e-05 ± 1.5e-05 s⁻¹,0.000149 ± 1.9e-05 s⁻¹,0.000251 ± 3.3e-05 s⁻¹,1280 ± 310 µM,8.86e-05 ± 1e-05 s⁻¹
C10U G60A C71U,1.14e-05 ± 1.1e-06 s⁻¹,,,,,2050 ± 570 µM,
A6G A39G,0.00207 ± 0.0008 s⁻¹,,6.4e-05 ± 1.4e-05 s⁻¹,0.000791 ± 0.0001 s⁻¹,0.00121 ± 0.00015 s⁻¹,,0.000144 ± 2.7e-05 s⁻¹
C10U G59U,2.6e-05 ± 1.8e-06 s⁻¹,,,,2.16e-05 ± 1.1e-05 s⁻¹,2000 ± 700 µM,
A5U,0.0156 ± 0.0027 s⁻¹,0.000961 ± 0.00015 s⁻¹,0.00247 ± 0.00049 s⁻¹,0.0143 ± 0.0042 s⁻¹,0.0129 ± 0.003 s⁻¹,661 ± 170 µM,0.00869 ± 0.0012 s⁻¹
G9A A48G G51A G63A,1.15e-05 ± 4.5e-06 s⁻¹,,,,,,
C10G C67U,< 1e-05 s⁻¹,< 1e-05 s⁻¹,,,,,
A6U U30A A36C,< 1e-05 s⁻¹,,< 1e-05 s⁻¹,,< 1e-05 s⁻¹,,
C11A G60A,< 1e-05 s⁻¹,,,,,,
C10A C70U,2.11e-05 ± 9.5e-06 s⁻¹,,,2.56e-05 ± 1.3e-05 s⁻¹,,,
